Measurements taken from patent publication US20080292620A1.

Biological target: T1, human prolactin receptor (PRLR), full length on cells (human) (UniProt P16471)
T1 sequence: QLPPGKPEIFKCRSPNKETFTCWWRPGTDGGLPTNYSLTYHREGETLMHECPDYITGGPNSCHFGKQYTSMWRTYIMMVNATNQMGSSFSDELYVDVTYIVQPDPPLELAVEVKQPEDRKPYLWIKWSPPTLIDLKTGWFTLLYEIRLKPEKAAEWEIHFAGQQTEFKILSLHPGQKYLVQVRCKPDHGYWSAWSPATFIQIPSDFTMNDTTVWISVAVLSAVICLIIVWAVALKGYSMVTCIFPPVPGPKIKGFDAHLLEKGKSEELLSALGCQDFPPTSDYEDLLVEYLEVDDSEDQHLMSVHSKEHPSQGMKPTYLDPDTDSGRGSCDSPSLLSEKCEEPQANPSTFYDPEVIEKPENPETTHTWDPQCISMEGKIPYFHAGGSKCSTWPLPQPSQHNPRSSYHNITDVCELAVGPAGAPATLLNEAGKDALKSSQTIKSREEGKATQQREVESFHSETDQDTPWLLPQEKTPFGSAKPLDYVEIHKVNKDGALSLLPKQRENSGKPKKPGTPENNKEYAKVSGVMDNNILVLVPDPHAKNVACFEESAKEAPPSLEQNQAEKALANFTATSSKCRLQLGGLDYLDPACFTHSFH
Assay: flow cytometry on CHO-K1 cells expressing human PRLR (clone 1G5)

Q: How did the MFI turn out when “mAb 1167, control murine anti-PRLR monoclonal antibody (R&D Systems, catalog #MAB1167)” was run?
A: Its MFI is 33.8.
